The supplement of paper PMC10567573

B1: PTPN9 (parent)
chain: NKWTVQYNVSPLSWNVAVKFLMAR

Variants of: B1
Experiment: protein stability index of a GFP-peptide fusion (GPS, HEK-293T) (PSI 1-6); higher = more stable
Conditions: c terminus: a fixed tail appended
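Further: lentivirally expressed fusions sorted by FACS into six bins by GFP to DsRed ratio, PSI derived from sequencing read proportions per bin multiplied by bin number.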

Protein stability index, by site and new letter:
Y7: S 2.84, D 1.91, I 2.83, K 2.94, A 3.49, G 1.15, E 2.17, C 2.47, P 1.84, T 1.81, R 1.14, M 2.91
K2: W 2.89, T 3.13, D 3.84, E 3.64, N 1.83, M 3.14, A 2.25, Y 2.49, L 3.54, Q 2.27, C 3.56, I 3.27, F 1.49, R 1.66
L12: H 2.66, S 1.88, Q 1.72, D 3.6, I 2.07, M 2.17, W 3.11, P 1.52, R 4.48, C 2.9, V 2.89, A 4.28
W3: N 1.31, I 2.66, F 2.59, T 1.46, G 1.77, Y 2.57, R 1.97, S 2.1, Q 2.35, P 1.7, V 2.08, H 1.02, E 1.91
N1: V 2.06, S 1.54, H 2.3, W 3.28, F 3.7
W14: R 2.4, Q 2.62, L 2.71, M 2.75, T 1.93, S 1.78, D 1.62, A 2.09, K 2.24, C 2.29, V 2.4, G 2.35, P 2.08, N 2.06, E 1.28, I 3.02, H 2.15
S13: K 2.74, M 3.55, P 2.31, W 2.65, Q 2.02, A 1.35, G 2.81, V 2.88, R 2.34, Y 2.32, I 1.99, H 2.51, C 3.09, N 3.31, E 1.69, D 2.74
Q6: K 3.19, T 2.6, G 1.7, E 3.28, V 2.79, P 2.54, H 3.77, Y 2.07, C 2.98, S 2.46, M 2.02, A 1.78, D 2.28, N 2.38, F 2.83, R 4.19
N8: S 2, L 2.45, Y 3.61, C 3.2, H 2.26, A 1.49, R 2.26, T 2.15, D 2.07, P 1.68
P11: S 4.04, A 2.01, E 2.43, G 2.51, H 3.88, L 2.59, W 4.3, N 2.66
V5: I 3.45, D 1.76, S 1.99, W 5.45, L 2.96, H 3.13, Q 1.92, K 3.16, Y 1.67, C 1.83, M 3.19, E 2.94, P 1.94, T 3.23, N 1.95, G 2.31, A 2.04
V9: A 3.1, W 2.98, C 3.09, D 2.06, K 2.56, T 2.65, G 3.82, R 1.55, Y 2.1, E 1.46, L 2.45, P 1.6, S 2, Q 1.43, I 4.2
S10: H 2.23, V 3.2, M 2.81, A 2.26, T 3.21, F 2.12, W 2.48, Y 1.82, I 1.62, D 2.26, N 2.35, C 3.37
